In publication PMC10675646 (Viruses, 2023):
Where no end group is shown, it is not given here. [ ]: non-standard residue; d: D form. SeMet = C[Se]CC[C@H](N)C(=O)O

Target: T1, TRAF2 TRAF-C domain (human TRAF2 residues 315-501), tag cleaved, for crystallization (human, UniProt Q12933 315-501)
T1 sequence (looked up): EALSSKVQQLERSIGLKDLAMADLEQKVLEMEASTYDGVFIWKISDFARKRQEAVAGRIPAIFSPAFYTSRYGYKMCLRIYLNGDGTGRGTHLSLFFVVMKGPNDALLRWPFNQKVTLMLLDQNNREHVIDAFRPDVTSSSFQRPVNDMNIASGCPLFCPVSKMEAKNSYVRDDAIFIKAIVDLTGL
Assay: crystal structure
Conditions: both partners purified

B1: Selenomethionine (Se-Met) ORF3a peptide (residues 30-45, isoleucine 37 replaced with selenomethionine) (peptide)
peptide: RATATIP[SeMet]QASLPFGW
binding result: binds
